According to the supplement of paper PMC12636428:

Test system: Saccharomyces cerevisiae
Test: transcriptional activation domain activity (GFP:mCherry ratio, weighted mean of sorted bins, harmonized to initial dataset scale) (arbitrary fluorescence ratio units); higher = stronger transcriptional activation
Settings: beta-estradiol 1 µM; induction time 4 h
In short: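 Barcoded protein tiles fused to an estradiol-inducible synthetic transcription factor were integrated at the yeast URA3 locus, in diploids carrying a GFP reporter. Cultures were diluted 1:5 into SC with 1 uM beta-estradiol, held 4 hours at 30 °C, sorted into 8 bins by GFP:mCherry ratio, and barcodes sequenced. Tiles under 50 reads were discarded. Activation activity is the read-weighted mean of bin median fluorescence, averaged across barcodes, then linearly mapped onto the initial dataset scale.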

Row | Sequence | transcriptional activation domain activity
1 | SYFIAAIINWEMSGFFLFSYEYVHKDLNLGCSNLYFTWYALFKEYGAPLVPMS | 45100
2 | SYINTHNSNDNNNLMGSQARSNSQTPTASTIYEEAESQSSYLDDMFRTSQGGR | 43100
3 | SYITYYQSRQFVMIPWYFYFIIITCVLTIIFVMAVCFLFYIHLLLPILVMLWS | 35400
4 | SYLHSFLLSFLYPPSPLVSSPFTLLCSFPYFFSFLSFFFSFSFPYSSSCFVFH | 45000
5 | SYQHLHSVMKVINCLNLMLVVCYFSDVRYLKVLVKFWNELHNDVVSRNKLIIV | 42300
6 | SYSLNTSLCQAFWHVTWRLTPPLAVFLPINPFLCLHLHFTCTLFFLLSLVMLQ | 58400
7 | SYWLTIQRYGGWFPNRVQSSSTSFSVFLHFSNPFWLHGWWLLCCLLRLASFVL | 79900
8 | SYYNLLCFSLCVRVCVCFVLLIILSFVSLLCFSFLLCFHCVLPFFFFFVFFFF | 49200
9 | TAALIELILAIAFRVTMYHLALYGSNVLFRYMRLSNELSNRYANCLVATLNAR | 23200
10 | TAANGKKSKGNKGGNAAGANANANAKANGNTKNGNGNSRNGNNKRMRALGSAM | 25700
11 | TAAPYHKLAYHPALSPKISLGFWPFQHILTFLDYKEYVLQWTLLVTVQIPWFN | 64700
12 | TAATVPSATRAVVSATCRATALRVRSATTAAVTTTSPATARLPARPAPATTAS | 34000
13 | TACVAIINIKCLFLEMHVWSVLNYAFFFISYGGWWVWTIAQSLIFGHQSIYFV | 34700
14 | TADTAAASTSQPKLAQDQQQATDGENSEKRKPGRPRGSRNRKPRASVGSATKA | 37800
15 | TAGAATNNKRNRLKVNGKVFTRLDVIGRGGSSRVYRVMAENSKIFALKRVSLD | 35800
16 | TAIVTVISTVMAIATVTATGIMSIIDTMSTTAIITAIAMDMVTESIMVITAIT | 87500
17 | TAKLLLEDSMKKKRQEIQQLEQATHQRSNLETTHLLDIDWDALLDPSDTLNFM | 90000
18 | TAPAPEAAAEPAPAAEAEAPAAETAEAPKEEAKDEKKPEKEKKVSRRLSSRVT | 32400
19 | TAPFPILEDQCPALNLDRSNNDLLLQNNISFPKGSDLQAIQLTPISGDYSTYV | 92600
20 | TAPSATSAAALVTSPATALRVAMVVSRAAAPAAATTVPARARPATPAVVSATC | 51300
21 | TARVSEAKPARGRPSSAKAESPAVEAAPAVKKRGRGRPSKTKPETEEEEEAVP | 39600

Row | Sequence | transcriptional activation domain activity
22 | TASSGTRATTTSSAPRSRRTHTTPLRAAQARAPRCRTARARTSCGSTPTARRS | 23800
23 | TASTGTEARNAETTTRRVRSGIVNRRSHAKSRTGCRTCKRRRIKCDESRPSCR | 22400
24 | TATARVRAVGENQKLEIVLGESDGTEEECQCGRRNKNANVKKYVQGVRAGIHY | 35000
25 | TATKPTESKPVETKTDAAAAGKSTTPANGSGSASATKPAETASTTEKKKKNRL | 30400
26 | TATVQYSERRRGTVTAFNDEKGYGFAADSDPASLGNKEVLVHHKKIKSTARHK | 24200
27 | TAVLMQLINLTVFICLASFGSLVFATWLPLIFQYYAIHLRDLLLHDASLIVNW | 39100
28 | TAVSQLERAIARILLIRYEQDIARLFSTRLYSVALVHLPTFVMRCAALAGPGW | 50400
29 | TCRHSSPHVWWLIFGVLCIMYMMVLEVLLLGFVVLVLAPLVFIFWNLFLICIG | 52700
30 | TCRLSSPHLWWLTFGILCVLYLMVLEIFLLGLLVFFVGPLFYLFWNVVLLCLG | 79500
31 | TDAAADAPKEDEVKEGEEKMETESTEEKKESESAEEKPAEETAASADTEMAEA | 25600
32 | TDAGPGEEDEEVVHEVRAKALRHVPVKPDDDADSKKKNNSPWQPEGLGPLRIL | 34200
33 | TDDAKAKRKKEKKEKKEKSRSKKSADEGSDNEDGTSEERSKKRKSKSKSKSRS | 30700
34 | TDDAPRVKTKAEKEKEKKEKEKQRKKEMAAKKKANAPAKQEAAKPAETKAAAA | 41100
35 | TDDYFQTVLMSGLLRVLKDPASSGQHHTVIEAIMAIFKTWIMLAFAAVTRSSV | 56900
36 | TDEAESKKAEEVPKTAEEAKPEESKAEETAMADETPKTEEAKPEDVKVEAHKE | 19400
37 | TDILKFWHLVVHNGMLERAKGLVSITLTSDTRFVFKAISWRLVMLPRLKYLAL | 76100
38 | TDMDLKILEDLCNISSLYEVPFGKHINHHDHNNAGNGCDGSSTGNNENGNQTM | 77600
39 | TDPKPITDNGKNVPLDEIESLEIPNLDLTTTMNGYDVNLLMQNLNDMVNMKLH | 91600
40 | TDRGGRRGKDYDPADRRHRRRGSSSSSDDRRRSRSRSKSRTRKAAETAAVAGV | 59200
41 | TDSNATQKQLPVLTPSDLLSPFSVPSVSQVLFTNELRSMMLADNNIDSGAFPT | 79900
42 | TDVYYALRPGYQDDEVWDLLPLPTFPQLHMLTLNMLHISFQFPNWWTLWFKWI | 68900

Row | Sequence | transcriptional activation domain activity
43 | TDYYQAVGQHDFIKAFHDEIGPFHRKVYDNVIRKIFVLLAIILELPENYFVDR | 40900
44 | TEAPKEEAAPAPVEEAPKQEEAPADAPAEEAAPAAAEEAPKETAAASPPKRGI | 47800
45 | TEAPPAPAPEGGDDEEDGEGDEGGEAAAGGKKKKKKKKPAEKKVPEAPAPKKG | 15400
46 | TECASIPFAKMRALLNGIPVTNLNDRDRMMLFIFKLVLLEVRSKNTLEILSNH | 33400
47 | TEEDAINQSKESNMISINEMLQKQMDFELLGENHLKETQDYLALYKKAYGIEF | 113000
48 | TEETPHDLPKNTAKGRDEEDFPLDYFPVSVEYPTEENAFDPFPPQAFTPAAPS | 42500
49 | TEEVVEPAAEKPAKKSRKRKSDVAEAVAEEKPETPVKPKKAKKEVAKAEEVVA | 20400
50 | TEGEPETPADGDEEEGGEAEAEGGEEKKEEEEGWGLPVKKKKGKKGKGSNDAT | 26900
51 | TELYRFTLAQSEQPGMYPLDLAWLDWDLVSSLWSYSLWSIQLSIYFFCPFAYF | 61400
52 | TENIERVLERGERIDLLVDKTGRLNVGANEFRRRSRGLRRRMWWKNVKLMALL | 65200
53 | TEQEAIQKKRKKRKIREDNGISTVLFALEEVCAIILHRMQHRNGVPHVTTLVF | 52100
54 | TEQSVFVGLLLYRLKYPANLVSLVLKLSAVQSTLFKVVFAVYLLVWWGIKQAR | 63100
55 | TESVCWDFVWLTFYFTFGLTSLITSWAALPPLSQWSLSFGQLVPIFLLLFFLT | 46700
56 | TETELYIPEFKLDPVNGYWFPHFVKYIIVALMMGLYILIVFWTLMIFKVVYKL | 43100
57 | TEVHVARERIMSYALNLFQLAAGPSEYLANLQTGYHYVACLQWLLRFKIFALV | 57300
58 | TEVQNYPHALDLITDNLDDDFQDELRGSLDVQARLLYGLIHARWIVTARGLSK | 40200
59 | TEYIYQGSNGLRWPPLAFPEHFVYPTEYIAHVYSWLILGLSYVYLLLLVFFYY | 46100
60 | TFARHTDQKWLEEVITEALNELAGLGIVRAHLIALRWCSERITITRVYCSRLL | 43300
61 | TFFLMRDIFIMEFLAHCDLLTIFVLAQTGEYARDLVKAFFSCNLRLLVVIFLG | 47700
62 | TFGLQTSDKNHYIVDAIHVAVARVGVYVQYPQLQKWSLGKIFYISVWKMRTKF | 68800
63 | TFLANILPITFYFYFYLHFLFLFFFFLFSLSAFLFFLFLYFYFLFSPLFLPFI | 63700

Row | Sequence | transcriptional activation domain activity
64 | TFLGFFDFTCSSPSYVIHHLDITNLFVSPFLFFPSFPSIFIFCWNILILGLFE | 57300
65 | TFLLLPIFVCPHPNLLFGLGFSLILHACLRQIFLSSLVICVFLSLLVIYMLYV | 50900
66 | TFLLLSMPALLLLFSALGVCFLLSTSGLFFLSTSGFFFLLTTSGFFFFLFFML | 37100
67 | TFLQVCGSSSIGFSSINLSLRTMAIYGQSLYVVIALVILILGHWCLLLHGLML | 63800
68 | TFQHLSRTTYEDFVNTKQFFARVRVLRRLYSCNKQEIWQSLIFSTLACLLDRP | 60900
69 | TFQPEHTCFPFFLFFFFLFFPPLSFFLPLFFPYSFSVAPLLSAPTVTTHTFTF | 52800
70 | TFSNGEGERVSAWDARETEDGGREIFIEGEEVRVVVVQIRDGRVADWKGAVRD | 30200
71 | TFTDIPVVVCHVFKQKLAKLMSNLCTMFPNAGWLVYSITSIEFQKHGVTHRND | 51100
72 | TFVERVYTCLNYRIYKIKILGGTCALLIFVWYFPGFVLRNVLVGMLGHVVLSI | 65400
73 | TFVRLVMLIAMKVFKFDFLVLSYLATIVYSVCFLTYLCDWHSIFPFAWYHHIY | 47000
74 | TGAFGATANTGSAFGQRPAFGSPAPTGFGAAQPAATGFGGGGAFGAGANNTTS | 22300
75 | TGAGLFFFFHLFLCVWGIEILLVALDFPFFFFWFPYCAWAVSVRLGFGMIPKI | 66900
76 | TGAGTGAFGSTNNTTSNGGIFGSQPPATGNAFGGGGAFGQNKPATGFGAAPST | 40200
77 | TGAKAPEGGKQLIVVVSSDKGLCGGIHSAVTKKTRQEYAAAPAEDKPQLIVVG | 63400
78 | TGAPIRLVAEKAEEQEQDQEGEAPAQDQAQDQEQTQDQGQARAQAGTKAQATK | 8780
79 | TGDDDAAKTTPKKRGDADGTPKTAKSTPRKRKTKAEGDGECSPKKRGRKTKVV | 36500
80 | TGEKFGIKRKEQQKPEQTAEETVALAKNDTPSFASVFILAYGIHKTLLLPVRL | 41500
81 | TGGAGATRTSKAKADRHVTQAGHRRLRAQAACERCRRRKLKCEPSGASCVACV | 48800
82 | TGGFGSTNTGGGGLFGGGNTSNTGGGFGSTAGGFGSTNTTSAFGGAAKPAFGA | 19300
83 | TGGISELQNALDDTRASFAYVRLQYANDKESKREKFILVIWIGKSVKVMRKAK | 40200
